# Assay results: ChEMBL document CHEMBL2073751, “Adenosine triphosphate-dependent transport of estradiol-17beta(beta-D-glucuronide) in membrane vesicles by MDR1 expressed in insect cells” (Hepatology, 1998)
# Test system: C[C@]12CC[C@@H]3c4ccc(O)cc4CC[C@H]3[C@@H]1CC[C@@H]2O[C@@H]1O[C@H](C(=O)O)[C@@H](O)[C@H](O)[C@H]1O
# Assay: TP_TRANSPORTER: uptake in membrane vesicle from MDR1-expressing Sf9 cells
# Assay type: functional, cell membranes
substance,measurement,value
ATP-dependent translocase ABCB1 (Homo sapiens),Km,62 µM
